Measured values taken from article PMC12287439 (Nature Communications, 2025).
Changes are numbered by the printed parent chain. In names and notes the source's numbering stands.

T1: LYCHOS (Homo sapiens, UniProt Q7Z3F1, Y57A)
T1 sequence (Q7Z3F1 1-870 Y57A): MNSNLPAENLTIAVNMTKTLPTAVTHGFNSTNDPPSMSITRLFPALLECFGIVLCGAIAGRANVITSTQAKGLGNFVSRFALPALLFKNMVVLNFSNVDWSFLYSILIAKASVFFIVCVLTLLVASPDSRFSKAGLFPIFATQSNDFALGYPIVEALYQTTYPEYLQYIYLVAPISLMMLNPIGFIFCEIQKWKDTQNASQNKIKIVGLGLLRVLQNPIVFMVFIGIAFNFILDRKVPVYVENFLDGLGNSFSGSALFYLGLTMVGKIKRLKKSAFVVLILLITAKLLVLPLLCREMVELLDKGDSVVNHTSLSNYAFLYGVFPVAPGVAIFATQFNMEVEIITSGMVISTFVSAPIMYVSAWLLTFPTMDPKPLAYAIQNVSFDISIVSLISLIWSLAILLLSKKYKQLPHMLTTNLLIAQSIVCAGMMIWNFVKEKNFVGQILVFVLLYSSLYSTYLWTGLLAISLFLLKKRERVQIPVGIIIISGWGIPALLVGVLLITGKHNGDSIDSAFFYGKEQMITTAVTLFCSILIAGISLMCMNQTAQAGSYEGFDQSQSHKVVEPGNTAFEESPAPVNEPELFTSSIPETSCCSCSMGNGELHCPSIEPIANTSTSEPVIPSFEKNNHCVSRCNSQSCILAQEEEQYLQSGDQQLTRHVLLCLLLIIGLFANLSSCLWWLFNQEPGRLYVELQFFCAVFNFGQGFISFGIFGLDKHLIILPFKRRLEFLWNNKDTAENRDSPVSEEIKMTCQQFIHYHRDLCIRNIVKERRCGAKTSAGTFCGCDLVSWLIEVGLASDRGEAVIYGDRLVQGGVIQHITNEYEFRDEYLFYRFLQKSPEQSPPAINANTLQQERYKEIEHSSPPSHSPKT

B1: human LYCHOS, wild type (lysosomal cholesterol signaling protein) (natural protein, UniProt Q7Z3F1 1-870, looked up)
chain: T1 sequence (Q7Z3F1 1-870 Y57A) with A57Y
B2: human LYCHOS Y57A (natural protein, UniProt Q7Z3F1 1-870, looked up)
chain: T1 sequence (Q7Z3F1 1-870 Y57A)
B3: LYCHOSPLD (permease-like domain of human LYCHOS) (domain or fragment)
chain: MNSNLPAENLTIAVNMTKTLPTAVTHGFNSTNDPPSMSITRLFPALLECFGIVLCGYIAGRANVITSTQAKGLGNFVSRFALPALLFKNMVVLNFSNVDWSFLYSILIAKASVFFIVCVLTLLVASPDSRFSKAGLFPIFATQSNDFALGYPIVEALYQTTYPEYLQYIYLVAPISLMMLNPIGFIFCEIQKWKDTQNASQNKIKIVGLGLLRVLQNPIVFMVFIGIAFNFILDRKVPVYVENFLDGLGNSFSGSALFYLGLTMVGKIKRLKKSAFVVLILLITAKLLVLPLLCREMVELLDKGDSVVNHTSLSNYAFLYGVFPVAPGVAIFATQFNMEVEIITSGMVISTFVSAPIMYVSAWLLTFPTM

Legend:
LYCHOS [1] = target: T1, LYCHOS; assay: cryo-EM structure; type: binding
LYCHOS [2] = target: LYCHOS (Homo sapiens, UniProt Q7Z3F1); assay: BRET recruitment of GATOR1; type: cell-based
cryo-EM structure = target: the molecule itself; assay: cryo-EM structure

LYCHOS (Homo sapiens, UniProt Q7Z3F1), sequence (Q7Z3F1 whole entry): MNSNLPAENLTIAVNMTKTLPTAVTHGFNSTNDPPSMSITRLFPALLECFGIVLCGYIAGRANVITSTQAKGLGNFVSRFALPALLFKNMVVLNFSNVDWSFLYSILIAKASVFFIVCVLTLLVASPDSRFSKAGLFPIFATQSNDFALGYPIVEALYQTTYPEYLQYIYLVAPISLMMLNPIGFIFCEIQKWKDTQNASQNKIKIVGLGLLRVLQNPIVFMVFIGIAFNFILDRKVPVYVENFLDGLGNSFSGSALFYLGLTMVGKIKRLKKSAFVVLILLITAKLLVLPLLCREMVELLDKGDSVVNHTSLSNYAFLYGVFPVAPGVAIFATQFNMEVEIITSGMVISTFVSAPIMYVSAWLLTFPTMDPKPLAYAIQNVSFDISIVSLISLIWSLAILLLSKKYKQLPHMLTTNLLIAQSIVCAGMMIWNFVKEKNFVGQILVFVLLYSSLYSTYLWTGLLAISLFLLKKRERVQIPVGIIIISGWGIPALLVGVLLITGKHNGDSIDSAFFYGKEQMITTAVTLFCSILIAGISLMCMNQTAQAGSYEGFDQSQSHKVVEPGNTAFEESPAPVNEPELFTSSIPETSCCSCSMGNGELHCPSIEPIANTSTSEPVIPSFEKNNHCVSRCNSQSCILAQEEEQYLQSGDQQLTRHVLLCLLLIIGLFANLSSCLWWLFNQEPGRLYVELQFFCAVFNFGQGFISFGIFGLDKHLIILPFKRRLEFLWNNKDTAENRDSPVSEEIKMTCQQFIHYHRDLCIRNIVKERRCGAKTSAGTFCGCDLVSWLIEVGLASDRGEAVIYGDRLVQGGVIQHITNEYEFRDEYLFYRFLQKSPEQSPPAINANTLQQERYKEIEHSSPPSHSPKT
LYCHOS (Homo sapiens, UniProt Q7Z3F1), sequence (Q8WTW4 whole entry partner): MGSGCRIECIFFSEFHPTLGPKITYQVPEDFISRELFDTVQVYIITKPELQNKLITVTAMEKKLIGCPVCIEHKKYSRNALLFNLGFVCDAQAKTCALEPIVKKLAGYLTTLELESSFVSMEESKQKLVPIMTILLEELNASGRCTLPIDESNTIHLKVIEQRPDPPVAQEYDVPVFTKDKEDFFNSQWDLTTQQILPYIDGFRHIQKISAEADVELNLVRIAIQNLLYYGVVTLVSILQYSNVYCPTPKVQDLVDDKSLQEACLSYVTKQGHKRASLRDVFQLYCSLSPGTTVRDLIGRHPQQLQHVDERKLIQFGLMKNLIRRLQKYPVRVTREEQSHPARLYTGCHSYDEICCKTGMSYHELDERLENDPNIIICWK
LYCHOS (Homo sapiens, UniProt Q7Z3F1), sequence (Q12980 whole entry partner): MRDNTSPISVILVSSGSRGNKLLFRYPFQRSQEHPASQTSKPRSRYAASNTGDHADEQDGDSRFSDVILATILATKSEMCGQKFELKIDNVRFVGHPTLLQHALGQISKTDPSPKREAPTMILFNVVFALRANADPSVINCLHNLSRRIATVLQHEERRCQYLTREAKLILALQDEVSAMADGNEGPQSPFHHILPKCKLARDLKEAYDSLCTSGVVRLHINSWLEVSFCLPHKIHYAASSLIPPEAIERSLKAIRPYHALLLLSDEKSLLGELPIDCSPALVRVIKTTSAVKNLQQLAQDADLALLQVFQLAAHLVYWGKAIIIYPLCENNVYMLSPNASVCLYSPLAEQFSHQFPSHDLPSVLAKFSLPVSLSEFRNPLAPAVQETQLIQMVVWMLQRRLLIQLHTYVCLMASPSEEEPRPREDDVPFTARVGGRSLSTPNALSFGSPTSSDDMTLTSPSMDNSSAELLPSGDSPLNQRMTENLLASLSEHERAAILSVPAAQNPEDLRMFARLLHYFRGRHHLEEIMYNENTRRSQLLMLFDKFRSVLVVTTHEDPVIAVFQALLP
LYCHOS (Homo sapiens, UniProt Q7Z3F1), sequence (O75140 whole entry partner): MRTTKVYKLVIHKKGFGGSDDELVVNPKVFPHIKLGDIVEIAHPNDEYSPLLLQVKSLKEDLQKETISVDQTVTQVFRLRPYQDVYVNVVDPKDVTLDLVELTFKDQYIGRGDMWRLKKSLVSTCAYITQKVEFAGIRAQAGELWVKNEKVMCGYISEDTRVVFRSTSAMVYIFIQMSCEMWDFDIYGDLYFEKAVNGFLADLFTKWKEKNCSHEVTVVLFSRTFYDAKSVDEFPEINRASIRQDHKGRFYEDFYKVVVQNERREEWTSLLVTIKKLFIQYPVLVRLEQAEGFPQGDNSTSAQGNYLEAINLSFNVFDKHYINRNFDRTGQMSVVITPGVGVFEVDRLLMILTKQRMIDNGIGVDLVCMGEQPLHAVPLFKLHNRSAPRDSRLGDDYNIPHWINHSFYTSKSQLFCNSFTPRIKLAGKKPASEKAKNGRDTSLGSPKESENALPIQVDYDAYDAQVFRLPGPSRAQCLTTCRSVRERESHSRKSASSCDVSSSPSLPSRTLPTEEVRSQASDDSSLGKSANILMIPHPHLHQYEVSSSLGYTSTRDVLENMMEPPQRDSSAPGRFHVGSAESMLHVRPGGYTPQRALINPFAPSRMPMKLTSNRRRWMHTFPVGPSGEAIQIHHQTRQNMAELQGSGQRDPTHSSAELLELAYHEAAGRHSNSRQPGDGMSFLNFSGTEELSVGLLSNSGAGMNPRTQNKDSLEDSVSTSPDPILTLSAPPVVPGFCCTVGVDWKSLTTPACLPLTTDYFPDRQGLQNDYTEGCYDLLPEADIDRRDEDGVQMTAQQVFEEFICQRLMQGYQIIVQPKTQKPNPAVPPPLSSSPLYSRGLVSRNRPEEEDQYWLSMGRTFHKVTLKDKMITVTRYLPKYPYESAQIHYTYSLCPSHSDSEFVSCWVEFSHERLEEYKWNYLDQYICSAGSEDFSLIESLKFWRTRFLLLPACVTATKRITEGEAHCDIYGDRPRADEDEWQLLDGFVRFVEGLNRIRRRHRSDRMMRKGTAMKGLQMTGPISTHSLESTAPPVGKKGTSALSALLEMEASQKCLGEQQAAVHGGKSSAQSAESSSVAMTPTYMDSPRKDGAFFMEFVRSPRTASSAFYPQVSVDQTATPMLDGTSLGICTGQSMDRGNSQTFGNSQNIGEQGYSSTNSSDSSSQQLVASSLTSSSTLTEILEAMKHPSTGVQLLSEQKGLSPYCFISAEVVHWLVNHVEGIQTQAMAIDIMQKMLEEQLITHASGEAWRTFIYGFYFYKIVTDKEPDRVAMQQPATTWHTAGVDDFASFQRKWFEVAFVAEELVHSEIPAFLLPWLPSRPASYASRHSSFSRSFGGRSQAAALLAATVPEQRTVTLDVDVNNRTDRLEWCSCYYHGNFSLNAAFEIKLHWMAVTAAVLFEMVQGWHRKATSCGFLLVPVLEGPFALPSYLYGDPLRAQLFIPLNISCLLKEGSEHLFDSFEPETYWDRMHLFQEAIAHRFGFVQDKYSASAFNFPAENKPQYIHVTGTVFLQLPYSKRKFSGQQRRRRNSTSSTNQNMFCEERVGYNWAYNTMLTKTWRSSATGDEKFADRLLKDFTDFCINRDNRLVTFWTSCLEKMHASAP

| Molecule | stoichiometry N (cryo-EM structure) | also measured |
| --- | --- | --- |
| CC(C)CCC[C@@H](C)[C@H]1CC[C@H]2[C@@H]3CC=C4C[C@@H](OC(=O)CCC(=O)O)CC[C@]4(C)[C@H]3CC[C@]12C [CHS, cholesteryl hemisuccinate] |  | cryo-EM structure (3.21 Å, contracted state) (LYCHOS [1]): We found there exist two CHS molecules in the CBC, with which GLD is locked in contracted state |
| CC(C)CCC[C@@H](C)[C@H]1CC[C@H]2[C@@H]3CC=C4C[C@@H](O)CC[C@]4(C)[C@H]3CC[C@]12C [cholesterol] |  | EC50 (LYCHOS [2]): 165 nM |
| B1 | 2 |  |
| B2 | 2 |  |
| B3 | 2 |  |
